Assay results taken from patent publication US20220396635A1 (UNIVERSIT T STUTTGART, published 2022).

T1: CEA (UniProt P06731 35-685)
T1 construct: whole, on cells
T1 sequence (looked up): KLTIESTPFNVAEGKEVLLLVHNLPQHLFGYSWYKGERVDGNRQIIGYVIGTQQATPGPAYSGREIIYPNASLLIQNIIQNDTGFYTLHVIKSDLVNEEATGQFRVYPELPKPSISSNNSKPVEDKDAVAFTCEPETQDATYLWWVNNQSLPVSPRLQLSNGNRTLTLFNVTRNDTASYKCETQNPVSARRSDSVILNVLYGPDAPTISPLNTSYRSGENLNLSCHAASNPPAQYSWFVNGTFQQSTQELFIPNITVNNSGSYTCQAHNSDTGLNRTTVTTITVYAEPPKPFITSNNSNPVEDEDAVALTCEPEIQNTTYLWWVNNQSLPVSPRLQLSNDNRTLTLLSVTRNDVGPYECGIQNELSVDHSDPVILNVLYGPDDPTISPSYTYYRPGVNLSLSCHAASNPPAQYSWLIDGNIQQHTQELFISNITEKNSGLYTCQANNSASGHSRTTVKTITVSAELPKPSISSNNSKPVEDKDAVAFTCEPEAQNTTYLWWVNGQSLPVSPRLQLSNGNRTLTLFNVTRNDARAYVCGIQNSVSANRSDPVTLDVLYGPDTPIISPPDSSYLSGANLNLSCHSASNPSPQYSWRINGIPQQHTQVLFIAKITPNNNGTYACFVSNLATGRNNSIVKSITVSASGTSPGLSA

B1: scDb/Fab-Fc (1-1)+2, trivalent bispecific anti-CEAxanti-CD3 (bispecific antibody)
chain: QVKLQQSGAELVRSGTSVKLSCTASGFNIKDSYMHWLRQGPEQGLEWIGWIDPENGDTEYAPKFQGKATFTTDTSSNTAYLQLSSLTSEDTAVYYCNEGTPTGPYYFDYWGQGTTVTVSSGGGGSDIELTQSPAIMSASPGEKVTITCSASSSVSYMHWFQQKPGTSPKLWIYSTSNLASGVPARFSGSGSGTSYSLTISRMEAEDAATYYCQQRSSYPLTFGAGTKLELKRGGGGSGGGGSGGGGSQVKLQQSGAELVRSGTSVKLSCTASGFNIKDSYMHWLRQGPEQGLEWIGWIDPENGDTEYAPKFQGKATFTTDTSSNTAYLQLSSLTSEDTAVYYCNEGTPTGPYYFDYWGQGTTVTVSSGGGGSDIELTQSPAIMSASPGEKVTITCSASSSVSYMHWFQQKPGTSPKLWIYSTSNLASGVPARFSGSGSGTSYSLTISRMEAEDAATYYCQQRSSYPLTFGAGTKLELKRAAADKTHTCPPCPAPPVAGPSVFLFPPKPKDTLMISRTPEVTCVVVDVSHEDPEVKFNWYVDGVEVHNAKTKPREEQYNSTYRVVSVLTVLHQDWLNGKEYKCKVSNKGLPSSIEKTISKAKGQPREPQVCTLPPSRDELTKNQVSLSCAVKGFYPSDIAVEWESNGQPENNYKTTPPVLDSDGSFFLVSKLTVDKSRWQQGNVFSCSVMHEALHNHYTQKSLSLSPGK
heavy: QVQLVQSGAEVKKPGSSVKVSCKASGGTFSGYTMNWVRQAPGQGLEWMGLINPYKGVSTYNGKFKDRVTITADKSTSTAYMELSSLRSEDTAVYYCARSGYYGDSDWYFDVWGQGTLVTVSSASTKGPSVFPLAPSSKSTSGGTAALGCLVKDYFPEPVTVSWNSGALTSGVHTFPAVLQSSGLYSLSSVVTVPSSSLGTQTYICNVNHKPSNTKVDKKVEPKSCDKTHTCPPCPAPPVAGPSVFLFPPKPKDTLMISRTPEVTCVVVDVSHEDPEVKFNWYVDGVEVHNAKTKPREEQYNSTYRVVSVLTVLHQDWLNGKEYKCKVSNKGLPSSIEKTISKAKGQPREPQVYTLPPCRDELTKNQVSLWCLVKGFYPSDIAVEWESNGQPENNYKTTPPVLDSDGSFFLYSKLTVDKSRWQQGNVFSCSVMHEALHNHYTQKSLSLSPGK
light: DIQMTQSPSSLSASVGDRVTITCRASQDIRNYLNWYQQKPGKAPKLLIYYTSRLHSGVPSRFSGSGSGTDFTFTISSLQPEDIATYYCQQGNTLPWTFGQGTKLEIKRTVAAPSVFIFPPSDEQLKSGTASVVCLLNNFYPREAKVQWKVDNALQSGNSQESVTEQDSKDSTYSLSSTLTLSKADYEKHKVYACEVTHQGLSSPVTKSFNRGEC
notes: also called scDbCEAxCEA-Fc(hole)Δab + FdhuU3-Fc(knob)Δab + VLhuU3-CLK
B2: scDb/scFv-Fc (1-3)+2, trivalent trispecific anti-EGFRxanti-HER3×anti-CD3 (other)
chain 1: EVQLVESGGGLVQPGGSLRLSCAASGFSLTNYGVHWVRQAPGKGLEWLGVIWSGGNTDYNTPFTSRFTISRDNSKNTLYLQMNSLRAEDTAVYYCARALTYYDYEFAYWGQGTTVTVSSGGGGSQAGLTQPPAVSVAPGQTASITCGRDNIGSRSVHWYQQKPGQAPVLVVYDDSDRPAGIPERFSGSNYENTATLTISRVEAGDEADYYCQVWGITSDHVVFGGGTKLTVLGGGGSGGGGSGGGGSQVQLQQSGPGLVKPSQTLSLTCAISGDSVSSNRAAWNWIRQSPSRGLEWLGRTYYRSKWYNDYAQSLKSRITINPDTPKNQFSLQLNSVTPEDTAVYYCARDGQLGLDALDIWGQGTMVTVSSGGGGSDIQLTQSPSFLSASVGDRVTITCRASQSIGTNIHWYQQKPGKAPKLLIKYASESISGVPSRFSGSGSGTEFTLTISSLQPEDFATYYCQQNNNWPTTFGAGTKLEIKRAAADKTHTCPPCPAPPVAGPSVFLFPPKPKDTLMISRTPEVTCVVVDVSHEDPEVKFNWYVDGVEVHNAKTKPREEQYNSTYRVVSVLTVLHQDWLNGKEYKCKVSNKGLPSSIEKTISKAKGQPREPQVCTLPPSRDELTKNQVSLSCAVKGFYPSDIAVEWESNGQPENNYKTTPPVLDSDGSFFLVSKLTVDKSRWQQGNVFSCSVMHEALHNHYTQKSLSLSPGK
chain 2: DIQMTQSPSSLSASVGDRVTITCRASQDIRNYLNWYQQKPGKAPKLLIYYTSRLHSGVPSRFSGSGSGTDFTFTISSLQPEDIATYYCQQGNTLPWTFGQGTKLEIKRGGGGSGGGGSGGGGSQVQLVQSGAEVKKPGSSVKVSCKASGGTFSGYTMNWVRQAPGQGLEWMGLINPYKGVSTYNGKFKDRVTITADKSTSTAYMELSSLRSEDTAVYYCARSGYYGDSDWYFDVWGQGTLVTVSSAAADKTHTCPPCPAPPVAGPSVFLFPPKPKDTLMISRTPEVTCVVVDVSHEDPEVKFNWYVDGVEVHNAKTKPREEQYNSTYRVVSVLTVLHQDWLNGKEYKCKVSNKGLPSSIEKTISKAKGQPREPQVYTLPPCRDELTKNQVSLWCLVKGFYPSDIAVEWESNGQPENNYKTTPPVLDSDGSFFLYSKLTVDKSRWQQGNVFSCSVMHEALHNHYTQKSLSLSPGK
notes: Trispecific antibody: 1 = HER3, 2 = CD3, 3 = EGFR; also called scDbhu225x3-43-Fc(hole)Δab + scFvhuU3-Fc(knob)Δab
B3: scDb/scFv-Fc (1-1)+2, trivalent bispecific anti-CEAxanti-CD3 (bispecific antibody)
chain 1: B1 chain
chain 2: B2 chain 2
notes: also called scDbCEAxCEA-Fc(hole)Δab + scFvhuU3-Fc(knob)Δab
B4: scDb/Fab-Fc (1-3)+2, trivalent trispecific anti-EGFRxanti-HER3×anti-CD3 (other)
chain: B2 chain 1
heavy: B1 heavy
light: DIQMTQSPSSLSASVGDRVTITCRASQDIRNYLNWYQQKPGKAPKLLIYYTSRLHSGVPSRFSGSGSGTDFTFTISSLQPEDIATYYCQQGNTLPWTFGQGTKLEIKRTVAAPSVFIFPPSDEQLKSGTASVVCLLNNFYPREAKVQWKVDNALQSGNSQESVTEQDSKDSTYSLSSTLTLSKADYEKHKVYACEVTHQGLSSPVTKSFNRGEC
notes: Trispecific antibody: 1 = HER3, 2 = CD3, 3 = EGFR; also called scDbhu225x3-43-Fc(hole)Δab + FdhuU3-Fc(knob)Δab + VLhuU3-CLK

How the values were obtained:
CD3 [1] = molecular target: T2, CD3 (UniProt P07766 23-207); test: flow cytometry, serial dilution on Jurkat cells (CD3-expressing), PE anti-human Fc detection
T2 construct: whole, on cells; on cells it stands in the TCR/CD3 complex; also called CD3 on Jurkat cells
Protocol: (§1) Binding of trivalent, bispecific fusion proteins to CEA-expressing (LIM1215) and CD3-expressing (Jurkat) cell lines was analyzed by flow cytometry. 2×10⁵ cells/well were incubated with a serial dilution of trivalent, bispecific antibodies for 1 h at 4° C. followed by detection using a PE-conjugated anti-human Fc antibody (Jackson ImmunoResearch Laboratories Inc). […] Regarding the CEA-expressing cell line LIM1215, the trivalent, bispecific antibodies bound with EC₅₀ values in the nanomolar range (FIG. 16A) (Table 9).

CEA = molecular target: T1, CEA; test: flow cytometry, serial dilution on LIM1215 cells (CEA-expressing), PE anti-human Fc detection
Protocol: as §1

CD3 [2] = molecular target: T2, CD3; test: flow cytometry, serial dilution on Jurkat cells (CD3-expressing), PE anti-human Fc detection, n = 1
Protocol: Trivalent, trispecific antibodies were analyzed for their binding to tumor cell lines with different EGFR- and HER3-expression levels (Table 14) by flow cytometry. Adherent cells were washed with PBS and shortly trypsinized at 37° C. Trypsin was quenched with FCS-containing medium and removed by centrifugation (500×g, 5 min.). 1×10⁵ target cells/well (FaDu, LIM1215, SKBR-3, T-47-D, MCF-7 and Jurkat cells) were incubated with a serial dilution of trivalent, trispecific antibodies for 1 h at 4° C. After removing excess of recombinant protein by washing with PBA (PBS, 2% FBS, and 0.02% sodium azide), bound protein was detected using PE-conjugated anti-human Fc mAb (Jackson ImmunoResearch Laboratories Inc). Fluorescence was measured using MACSquant VYB (Miltenyi Biotec) and data were analyzed using FlowJo (Tree Star). Relative median fluorescence intensities (MFI) were calculated as followed: relative MFI=((MFIₛₐₘₚₗₑ-(MFIdetection-MFIcells))/MFIcells).

Binder | EC50 (CD3 [1]) [nM] | EC50 (CEA) [nM] | EC50 (CD3 [2]) [nM]
B1 | 0.8 | 8.5 | –
B2 | – | – | 0.6
B3 | 2.8 | 2.4 | –
B4 | – | – | 0.8
